In doi:10.1101/2021.07.28.453719 (bioRxiv, 2021):
No end group written: not given here.

Key:
[1] = target: first bromodomain (BD1) of BRD4, wild type (human, UniProt O60885); assay: ITC
[2] = target: first bromodomain (BD1) of BRD3, wild type (human, UniProt Q15059); assay: ITC
first bromodomain (BD1) of BRD3, wild type, sequence (Q15059 24-144): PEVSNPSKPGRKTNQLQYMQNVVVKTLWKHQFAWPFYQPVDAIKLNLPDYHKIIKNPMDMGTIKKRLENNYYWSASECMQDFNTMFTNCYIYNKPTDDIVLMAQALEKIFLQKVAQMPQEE

Kd [1] | binding result [2] | Binder
167 ± 28 µM | binds | AK(Ac)GLLLK(Ac)G [diacetylated ILF3 peptide 10 (AKacGLLLKacG)]
60 ± 10 µM |  | AK(Ac)GALLK(Ac)G [ILF3 variant peptide AKacGALLKacG (aa 99-106) 15 carrying L102A]
